From paper PMC13127578, “Mavacamten inhibits myosin activity by stabilizing the myosin interacting-heads motif and stalling motor force generation” (Science Advances, 2026) come the findings set out here.

Series [1] deals with T1, single-headed human beta-cardiac myosin S1 (cS1), MYH7 residues 1 to 834 fused to GFP and FLAG (human, UniProt P12883 1-834).
T1 construct: beta-cardiac myosin heavy chain (MYH7), human, residues 1 to 834, followed by a short linker, a GFP domain and a FLAG tag; also called cS1gfp
Briefly: cross-linking; quantitative XL-MS with DSBU (600 μM, 20 min, 25°C) on 4 μM purified cS1 with bound light chains, 10 mM Mops pH 7.3, 50 mM KCl, 1 mM ATP, with 50 μM mavacamten or DMSO. The conditions noted are these: both partners purified.

Series [2] concerns the molecule itself. Briefly: cryo-EM structure; IHM_(mava): 2 μM cHMM with 1 mM ATP, 50 μM mavacamten (5% DMSO), cross-linked with 1 mM BS3, 50 mM KCl, 10 mM Mops pH 7; Lacey continuous carbon grid; ADP.Pi state; 3.7 Å.

B1: human MYL3 (vLC1), ventricular essential light chain (natural protein)
chain: not shown
notes: myosin essential light chain MYL3 (vLC1), human; also called ELC
Take B1: the binding result in series [1] is on record as “binds”.

B2: human MYL2 (vLC2), ventricular regulatory light chain (natural protein, UniProt P10916 1-166, looked up)
chain: MAPKKAKKRAGGANSNVFSMFEQTQIQEFKEAFTIMDQNRDGFIDKNDLRDTFAALGRVNVKNEEIDEMIKEAPGPINFTVFLTMFGEKLKGADPEETILNAFKVFDPEGKGVLKADYVREMLTTQAERFSKEEVDQMFAAFPPDVTGNLDYKNLVHIITHGEEKD
notes: myosin regulatory light chain MYL2 (vLC2), human; also called RLC
Consider B2, for which the binding result in series [1] is “binds”.

B3: human beta-cardiac heavy meromyosin (β-cHMM) heavy chain, MYH7 residues 1 to 1137 (domain or fragment, UniProt P12883 1-1137, looked up)
chain: MGDSEMAVFGAAAPYLRKSEKERLEAQTRPFDLKKDVFVPDDKQEFVKAKIVSREGGKVTAETEYGKTVTVKEDQVMQQNPPKFDKIEDMAMLTFLHEPAVLYNLKDRYGSWMIYTYSGLFCVTVNPYKWLPVYTPEVVAAYRGKKRSEAPPHIFSISDNAYQYMLTDRENQSILITGESGAGKTVNTKRVIQYFAVIAAIGDRSKKDQSPGKGTLEDQIIQANPALEAFGNAKTVRNDNSSRFGKFIRIHFGATGKLASADIETYLLEKSRVIFQLKAERDYHIFYQILSNKKPELLDMLLITNNPYDYAFISQGETTVASIDDAEELMATDNAFDVLGFTSEEKNSMYKLTGAIMHFGNMKFKLKQREEQAEPDGTEEADKSAYLMGLNSADLLKGLCHPRVKVGNEYVTKGQNVQQVIYATGALAKAVYERMFNWMVTRINATLETKQPRQYFIGVLDIAGFEIFDFNSFEQLCINFTNEKLQQFFNHHMFVLEQEEYKKEGIEWTFIDFGMDLQACIDLIEKPMGIMSILEEECMFPKATDMTFKAKLFDNHLGKSANFQKPRNIKGKPEAHFSLIHYAGIVDYNIIGWLQKNKDPLNETVVGLYQKSSLKLLSTLFANYAGADAPIEKGKGKAKKGSSFQTVSALHRENLNKLMTNLRSTHPHFVRCIIPNETKSPGVMDNPLVMHQLRCNGVLEGIRICRKGFPNRILYGDFRQRYRILNPAAIPEGQFIDSRKGAEKLLSSLDIDHNQYKFGHTKVFFKAGLLGLLEEMRDERLSRIITRIQAQSRGVLARMEYKKLLERRDSLLVIQWNIRAFMGVKNWPWMKLYFKIKPLLKSAEREKEMASMKEEFTRLKEALEKSEARRKELEEKMVSLLQEKNDLQLQVQAEQDNLADAEERCDQLIKNKIQLEAKVKEMNERLEDEEEMNAELTAKKRKLEDECSELKRDIDDLELTLAKVEKEKHATENKVKNLTEEMAGLDEIIAKLTKEKKALQEAHQQALDDLQAEEDKVNTLTKAKVKLEQQVDDLEGSLEQEKKVRMDLERAKRKLEGDLKLTQESIMDLENDKQQLDERLKKKDFELNALNARIEDEQALGSQLQKKLKELQARIEELEEELEAERTARAKVEKLRS
notes: FLAG tag at 1138 to 1146; Two heavy chains form the two-headed cHMM; in the sample each carries a mouse ELC and RLC; For cryo-EM and negative stain the sample was cross-linked with BS3 in the presence of ATP; also called βCM; beta-cardiac myosin
In the case of B3, the binding result in series [2] is on record as “binds”.
